In patent US20250043302A1, “MUTATED HYDROXYPHENYLPYRUVATE DIOXYGENASE POLYPEPTIDE, AND CODING GENE AND USE THEREOF” (BEIJING DABEINONG BIOTECHNOLOGY CO., LTD., priority 2021, published 2025):

Tests used:
[1] = tested on: Arabidopsis thaliana T1 plants; assay: Isoxaflutole tolerance of transgenic Arabidopsis thaliana T1 plants (spray, bleached leaf area grade, damage score); format: in vivo; conditions: for Classification and statistics of the grade of pesticide damage: Grade 0 / Classification and statistics of the grade of pesticide damage: Grade 1 / Classification and statistics of the grade of pesticide damage: Grade 2 / Classification and statistics of the grade of pesticide damage: Grade 3: number of plants;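 as to Scores: Weighted damage index from 0 to 100 where higher means more damage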
Summary of the method: (§1)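 Damage was assessed by bleaching grade (0 none; 1 <50%; 2 >50%; 3 100% of leaf area) one week after spraying. Sprays on 18-day-old T1 and wild-type plants used field-rate multiples: topramezone 25–200, isoxaflutole 35–280, mesotrione 52.5–420 g ai/ha.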

[2] = tested on: Arabidopsis thaliana T1 plants; assay: Mesotrione tolerance of transgenic Arabidopsis thaliana T1 plants (spray, bleached leaf area grade, damage score); format: in vivo; set-up: Scores: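 damage score 0-100 computed as Σ(N×S)/(T×M)×100 over grades 0-3 with higher meaning more damage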; conditions: for Resistance evaluation / Classification and statistics of the grade of pesticide damage: Grade 0 / Classification and statistics of the grade of pesticide damage: Grade 1 / Classification and statistics of the grade of pesticide damage: Grade 2 / Classification and statistics of the grade of pesticide damage: Grade 3 / Scores: 7 DAT, Table 3; for Classification and statistics of the grade of pesticide damage: Grade 0 / Classification and statistics of the grade of pesticide damage: Grade 1 / Classification and statistics of the grade of pesticide damage: Grade 2 / Classification and statistics of the grade of pesticide damage: Grade 3: number of plants; for Scores: pesticide damage score 0-100
Summary of the method: as §1

[3] = isoxaflutole 280 g ai/ha (4x field concentration), Arabidopsis thaliana T1 plants
[4] = isoxaflutole 280 g ai/ha (4x field concentration), Arabidopsis thaliana T1 plants, 16 plants
[5] = isoxaflutole 280 g ai/ha (4×), 7 DAT, Table 2
[6] = isoxaflutole 140 g ai/ha (2×), 7 DAT, Table 2
[7] = mesotrione 210 g ai/ha (two-fold field concentration)

B1: AsHPPDm-F383W-02: nucleotide sequence encoding Avena sativa HPPD with F383W; vector DBN11729 (nucleic acid)
DNA: ATGCCACCTACTCCAGCTACAGCTACTGGTGCTGCTGCTGCTGCCGTTACTCCTGAGCACGCTGCCAGGTCATTCCCCAGGGTGGTTCGCGTGAACCCCAGATCTGATAGGTTCCCAGTTCTGAGCTTCCACCATGTTGAGCTGTGGTGCGCTGATGCTGCTTCTGCTGCTGGCAGGTTCTCTTTCGCTCTTGGTGCTCCACTCGCTGCTAGATCTGATCTGTCTACAGGAAATAGCGCTCATGCCTCACTCCTGCTTCGCTCAGGTGCTTTGGCCTTCCTCTTCACCGCTCCATATGCTCCCCCACCTCAGGAGGCTGCTACTGCTGCTGCTACAGCCTCCATTCCAAGCTTCTCAGCTGATGCCGCTAGAACCTTCGCTGCTGCTCATGGACTTGCCGTGAGGTCTGTTGGTGTTCGCGTGGCTGATGCTGCTGAGGCTTTCAGAGTTTCCGTTGCCGGCGGAGCTAGGCCAGCTTTCGCTCCTGCTGATTTGGGACATGGTTTCGGCCTGGCTGAGGTTGAGCTTTACGGTGACGTGGTTCTCCGCTTCGTGTCTTACCCAGATGAGACTGACCTGCCTTTCCTTCCCGGCTTCGAGAGAGTTTCCTCTCCTGGTGCCGTGGATTACGGCCTGACAAGGTTCGACCACGTGGTTGGAAACGTTCCCGAGATGGCTCCAGTGATCGATTACATGAAGGGCTTCCTTGGATTCCATGAGTTCGCCGAGTTCACTGCTGAGGACGTGGGAACCACTGAGTCCGGTTTGAACTCTGTGGTTCTCGCCAACAATTCTGAGGCTGTTTTGCTCCCTCTGAATGAGCCTGTGCATGGAACCAAGAGGAGAAGCCAGATTCAAACTTACCTGGAGTACCACGGTGGCCCTGGAGTTCAGCATATCGCCCTTGCTTCTAATGATGTGTTGCGCACACTCAGAGAGATGCGCGCCAGAACCCCCATGGGAGGTTTCGAGTTCATGGCCCCACCACAGGCTAAGTACTACGAGGGCGTTAGAAGGATTGCTGGAGACGTGTTGAGCGAGGAGCAGATCAAGGAGTGCCAAGAGCTGGGTGTTCTTGTGGATAGGGATGACCAGGGCGTTCTGCTTCAAATTTTCACTAAGCCAGTGGGCGACCGCCCTACATTCTGGCTTGAGATGATTCAAAGAATCGGCTGCATGGAGAAGGATGAGGTTGGACAGGAGTACCAAAAGGGCGGATGCGGTGGCTTCGGAAAGGGTAACTTCAGCGAGTTGTTCAAGTCAATCGAGGACTACGAGAAGAGCCTCGAGGTGAAGCAGTCAGTGGTTGCCCAAAAGTCCTGA
modifications: AsHPPDm-F383W-02 Nucleotide Sequence
notes: vector DBN11729
[1]; [3]
  Resistance evaluation: Poorly resistant
  Scores: 42
[1]; [4]
  Grade 0 (classification and statistics of the grade of pesticide damage; number of plants): 4
  Grade 1 (classification and statistics of the grade of pesticide damage; number of plants): 4
  Grade 2 (classification and statistics of the grade of pesticide damage; number of plants): 8
  Grade 3 (classification and statistics of the grade of pesticide damage; number of plants): 0
[1]; [5]
  Resistance evaluation: poorly resistant (poorly resistant plants (scores 34-67))
  Classification and statistics of the grade of pesticide damage: Grade 0: 4
  Classification and statistics of the grade of pesticide damage: Grade 1: 4
  Classification and statistics of the grade of pesticide damage: Grade 2: 8
  Classification and statistics of the grade of pesticide damage: Grade 3: 0
[1]; isoxaflutole at four-fold field concentration
  tolerance to isoxaflutole (resistance class): poorly-resistant
[1]; isoxaflutole at two-fold field concentration
  tolerance to isoxaflutole (resistance class): moderately-resistant
[1]; [6]
  Classification and statistics of the grade of pesticide damage: Grade 0: 6
  Classification and statistics of the grade of pesticide damage: Grade 1: 10
  Classification and statistics of the grade of pesticide damage: Grade 2: 0
  Classification and statistics of the grade of pesticide damage: Grade 3: 0
[1]; pesticide damage score 0-100, isoxaflutole 140 g ai/ha (2×), 7 DAT, Table 2
  Scores: 21
[1]; pesticide damage score 0-100, isoxaflutole 280 g ai/ha (4×), 7 DAT, Table 2
  Scores: 42
[2]; in vivo
  tolerance to mesotrione (in words): different degrees of tolerance
[2]; [7]
  Resistance evaluation: moderately
  Classification and statistics of the grade of pesticide damage: Grade 0: 4
  Classification and statistics of the grade of pesticide damage: Grade 1: 10
  Classification and statistics of the grade of pesticide damage: Grade 2: 1
  Classification and statistics of the grade of pesticide damage: Grade 3: 1
  Scores: 31
[2]; mesotrione 420 g ai/ha (4×)
  Resistance evaluation: poorly resistant (poorly resistant plants (scores 34-67))
  Classification and statistics of the grade of pesticide damage: Grade 0: 0
  Classification and statistics of the grade of pesticide damage: Grade 1: 2
  Classification and statistics of the grade of pesticide damage: Grade 2: 14
  Classification and statistics of the grade of pesticide damage: Grade 3: 0
  Scores: 63
[2]; mesotrione at four-fold field concentration
  tolerance to mesotrione (resistance class): poorly-resistant
[2]; mesotrione at two-fold field concentration
  tolerance to mesotrione (resistance class): moderately-resistant
